“Also recorded” adds a separate entry of the source.
Columns and labels:
catL [1] = settings: previously shown by the applicant; cited from earlier work
[2] = system: Ngn3+ endocrine progenitor cells; assay: Ngn3+ cells in embryonic pancreas after antibody injection into pregnant mice; assay type: in vivo, mouse; settings: for number of Ngn3+ cells in the embryonic pancreas: pregnant mice i.p. 50 μg daily E10.5 through E13.5, E16.5 and birth, vs control Ab
Method: The control mouse mAb (clone TIB92) was from ATCC (Manassas, VA, USA). The recombinant human control Ab (cat. No 403502) was from BioLegend (San Diego, CA). In most of the experiments, anti-serpinB13 mAb (clone B29) or control mouse mAb was injected i.p. into pregnant female mice at 50 μg for four consecutive days, starting at gestational day E10.5 (total dose of 200 μg). In the lineage tracing experiments in adult mice, B29 was injected i.p. for 7 days at 100 μg/injection during the first week after STZ treatment (total dose of 700 μg).
(§1) Processing of pancreatic tissue for immunofluorescence microscopy. The pancreatic tissues were isolated and fixed either overnight (adult pancreases), or for one hour (embryonic pancreas explants), in 2% PFA (pH 7.4), followed by a two-step saturation process: first in a 30% sucrose solution in PBS and then in optimal cutting temperature (OCT) compound. After complete saturation, the tissues were imbedded in OCT using Cryomold and then snap frozen in an ethanol/dry ice bath. The OCT blocks were serially cut through the entire organ to obtain representative sections every 600 μm (6 to 8 sections per adult pancreas), 50 μm (12 to 14 sections per E16.5 embryonic pancreas), 35 μm (10 to 12 sections per E14.5 embryonic pancreas), or 15 μm (10 to 12 sections per E12.5 embryonic pancreas cultured for 1 to 3 days). For the embryonic linage tracing experiments, three largest sections were taken for the analysis. For all other experiments involving immunofluorescence microscopy, all obtained sections were analyzed.
(§2) The sections from the pancreases of embryos at age E14.5 and E16.5, and newborn pups (OP), were stained with anti-Ngn3 antibody to determine the total number of endocrine progenitors cells for all sections per explant combined (FIG. 9G, FIG. 17A). Alternatively, the sections representing the pancreases of embryos at age E12.5 (which are considerably smaller) were stained with both anti-Ngn3 and anti-CK19 antibodies to determine the fraction of CK19-positive area that was occupied by Ngn3− positive staining (FIGS. 9D, 10A, 10C, 12D, 12G, 12J and FIGS. 15A, 20B). The following formula was used to adjust for any differences in the pancreas size: (Ngn3^+ cell number/μm^2 of CK19^+ cells)×10^5.
Image analysis. […] To classify and quantify the images in unbiased fashion, we defined the following four classes for the analysis: Ngn3^+ cells, the clusters of cytokeratin 19^+ cells, the negatively stained areas, and background (e.g., the area outside of tissue sample). […] For the unbiased quantitative analysis of β-cells and islets in the whole pancreatic sections, Visiopharm Author module was trained to recognize insulin-positive β-cell clusters with diameter greater than 50 μm as well as negatively stained section area. […]

[3] = system: Ngn3+ endocrine progenitor cells; assay: Ngn3+ cells in embryonic pancreas explants (E12.5) cultured in vitro; assay type: cell-based, mouse; settings: for number of CK19+ epithelial cells: E12.5 explants with mAb vs control Ab
Method: Isolation and culture of embryonic pancreas explants. The isolation and culture of embryonic pancreas explants was performed as described elsewhere, with minor modifications.
as §1, with “analyzed. […]” for “analyzed.”
as §2
Image analysis. Embryonic images were processed with a plugin-Trainable Weka Segmentation v3.2.28 (Hamilton, New Zealand) for ImageJ v.1.52jv software. To classify and quantify the images in unbiased fashion, we defined the following four classes for the analysis: Ngn3^+ cells, the clusters of cytokeratin 19^+ cells, the negatively stained areas, and background (e.g., the area outside of tissue sample). Alternatively, the Visiopharm version 6.0 software (Visiopharm, Hoerholm, Denmark) with Author module was used to create applications to outline Ngn3^+ cells or double positive cells expressing YFP and insulin using preprocessing and postprocessing steps, when necessary. In addition, the Engine module of the Visiophram module was used to execute created applications and unbiasedly analyze the images. For the unbiased quantitative analysis of β-cells and islets in the whole pancreatic sections, Visiopharm Author module was trained to recognize insulin-positive β-cell clusters with diameter greater than 50 μm as well as negatively stained section area. In all studies involving microscopy the treatment assignments were blinded to investigators who performed data analysis.

catL [4] = assay: catL protease activity in cell extract from pancreatic tissue in vitro; assay type: biochemical; settings: mAb added to cell extract from pancreatic tissue in vitro
pancreatic islets = settings: cited from earlier work

B1: B29: mouse monoclonal antibody to serpin B13, clone B29; heavy chain SEQ ID NO:14, kappa light chain SEQ ID NO:16 (antibody, V domains shown)
VH: QIQLVQSGPELKKPGETVKISCKASGYTFTTYGMSWVKQAPGKGLKWMGWINTYSGMPTYADDFKGRFAFSLETSATTAYLQINNLKNEDTATYFCARPLLGLDYWGQGTTLTVSS
VL: DIVMTQTPLSLSVTIGQPASISCKSSQSLLHSDGKTFLNWFLQRPGQSPKLLIYLVSKLESGIPDRFSGSGSGTDFTLKISRVEVEDLGVYYCLQHTHFPLTFGAGTKLEIK
- inhibitory properties of serpinB13 (catL [1]): blocked
- fractions of pancreatic microscopic sections positively stained with anti-insulin antibody ([2]; E16.5 embryos exposed in vivo vs control Ab): significantly higher fractions
- Ngn3 protein levels ([2]; Western blot, E16.5, pregnant mice i.p. 50 μg daily E10.5-E13.5): robust increase
- number of Ngn3+ cells in the embryonic pancreas [2]: increased; also recorded: significant increase; also recorded: robust increase
- number of Ngn3+ cells in the embryonic pancreas ([2]; listed as mAb): robust increase
- Ngn3+ cell population, upregulation by mAb ([3]; CatL-deficient embryonic pancreas explants, 48-hour culture): completely refractory to upregulation
- number of CK19+ epithelial cells [3]: remained unchanged
- number of CK19+ epithelial cells ([3]; listed as mAb): did not change
- number of Ngn3+ cells ([3]; E12.5 explants, antibody at 1 μg/mL vs control Ab): significant increase
- protease activity of catL (catL [4]): dose-dependently enhanced
- recovery from diabetes (pancreatic islets; coadministration with a suboptimal dose of anti-CD3 mAb): accelerated
- Reg gene expression (pancreatic islets; injection): enhanced
- beta cell mass (pancreatic islets; injection): increase
- beta cell proliferation (pancreatic islets; injection): enhanced
- generation of pancreatic islets (pancreatic islets; injection): ~80 pancreatic islets per animal
- islet inflammation (pancreatic islets; mice, mAb alone): decreased

Reference: patent publication US12441811B2, “Compositions and methods for treating serpin B13 disorders” (REGENTS OF THE UNIVERSITY OF MINNESOTA, priority 2019, dated 2025)
